This assay concerns the target T1, Sgo1^1–150-His6-MBP (X. laevis, UniProt Q4KLP8 1-150).
T1 sequence (looked up): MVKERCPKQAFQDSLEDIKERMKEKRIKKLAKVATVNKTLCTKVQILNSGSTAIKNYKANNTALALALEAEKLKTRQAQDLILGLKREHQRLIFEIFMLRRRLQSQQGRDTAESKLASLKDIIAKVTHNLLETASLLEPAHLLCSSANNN
In words: supernatant depletion.

Kd data for one molecule are collected here from publication PMC7550704 (Molecular Biology of the Cell, 2020).

B1: GST-Borealin-2^216–296 (domain or fragment)
chain: not shown
The term Kd denotes the concentration at which binding is half-saturated. Lower therefore signals tighter binding. In turn, B1 displayed a Kd of 10 ± 1.6 µM.
